± gives the uncertainty stated by the source.
Experiment: protein stability index of a GFP-peptide fusion (yeast GPS) (PSI 1-4); higher = more stable; sorted into four equal gates, so the index is relative within each strain
Conditions: pdr5∆
Outline: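 Plasmids in a pooled yeast library fused tiled 17-residue yeast protein peptides downstream of GFP and also expressed Cherry. Mid-log cultures grown without leucine were sorted into four equal gates by GFP/Cherry fluorescence ratio. Each gate's plasmids were PCR-amplified and Illumina-sequenced, and reads were matched to strains by barcodes. The protein stability index is derived by multiplying each gate's read frequency by its gate number and summing the results.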

NECIASTSNALKVLSGD [SNF12] and NEDARAIFNNEFDSDDD [RPN4] are within error of each other in protein stability index: 2.86 ± 0.07 for the first, 2.87 ± 0.096 for the second.

NEDLEDGHYIEENSQGN [REC8] and NEDQFLEEITQYEHLIK [YDL116W/NUP84] are within error of each other in protein stability index: 3.37 ± 0.27 for the first, 3.02 ± 0.27 for the second.

Sequence NEEGDWSCIVVENWIID [ITC1] has a protein stability index of 2.48 ± 0.082.

Same assay, conditions: san1∆

LVSLFEDTNLAAIHAKR [HHT1] and LVSSGDRFIELISDQLL [YML103C/NUP188] are within error of each other in protein stability index: 2.56 ± 0.12 for the first, 2.42 ± 0.057 for the second.

First: LVTPKSFLFDVLKTLEY [NUT1]
Second: LVTQHKAKYNTPKYRLV [RPL5]
The protein stability index of the first is higher: 3.1 ± 0.15 for the first, 1.76 ± 0.095 for the second.

First: LWDSKELEQLVEFNRKV [RPN3]
Second: LWNQWLKLNTSLPSKLT [SRP68]
The protein stability index of the first is higher: 3.2 ± 0.068 for the first, 1.36 ± 0.11 for the second.

Compared with LWVFQAFTCFCIKKIME [SRB8], LYDALEPSDLRSWTLTS [YGL100W/SEH1] is higher in protein stability index: 1.27 ± 0.073 for the first, 2.78 ± 0.038 for the second.

Going from LYNDADVLTLENIQEGT [CDC53] to LYNKIWTEASSSGAGTV [ECM29], the protein stability index falls from 3.17 ± 0.044 to 2.12 ± 0.081.

First: LYPIFLLDDKKLMDEDS [YJR042W/NUP85]
Second: LYQSKGRYMEALALYVD [SRP68]
The protein stability index of the first is lower: 1.38 ± 0.29 for the first, 1.9 ± 0.15 for the second.

Compared with LYTLAQETEGTNRHTLA [SIR3], LYVDSESTSSTEEVEAL [MTW1] is higher in protein stability index: 2.2 ± 0.084 for the first, 3.14 ± 0.19 for the second.

First: LYVLPSFNIPRLTFKPW [YMR129W/POM152]
Second: LYYRPHINKKSQLDLFL [GRR1]
The protein stability index of the first is higher: 1.69 ± 0.18 for the first, 1.28 ± 0.1 for the second.

Compared with MAESHRLYVKGKHLSYQ [RPL33A], MAFQKDAKSSAYSSRFQ [RPL5] is higher in protein stability index: 2.52 ± 0.073 for the first, 3.02 ± 0.061 for the second.

Going from MAFRKSNVYLSLVNSYI [COB] to MALNKVLITDHIEKLEN [CDC53], the protein stability index rises from 1.96 ± 0.079 to 2.15 ± 0.059.

Going from MAPLSLNFKDDKKYKGL [REC8] to MATLEELDAQTLPGDDE [RPT5], the protein stability index rises from 2.47 ± 0.065 to 3.35 ± 0.13.

Going from MCEQALSALFTISSKPD [YCS4] to MCQNPMQKPVPFVPVLD [FAS1], the protein stability index falls from 1.87 ± 0.056 to 1.29 ± 0.061.

MDFGVDPSMDPELAMAL [RPN10] and MDHEEARRKHVSGKILG [RPS22A] are within error of each other in protein stability index: 2.99 ± 0.074 for the first, 2.87 ± 0.24 for the second.

Going from MDIAERIAVLHQKTKTL [YGL172W/NUP49] to MDIMEDFLRYINIKYLR [SNF2], the protein stability index falls from 1.81 ± 0.11 to 1.37 ± 0.12.

First: MDSIIPAGVKLDDLQVI [PGD1]
Second: MDVDQFDFLDDGTAQLS [YJR042W/NUP85]
The protein stability index of the first is lower: 2.57 ± 0.061 for the first, 3.32 ± 0.068 for the second.

Compared with MDVDSVKTTLVSLTQLR [RPC82], MEIVANAKESNYTDLIW [MED1] is higher in protein stability index: 2.08 ± 0.12 for the first, 3.44 ± 0.078 for the second.

MEKLDAKLNHLKKLEKF [SWI3] and MFTYSQETQHGNITRGL [RPN2] are within error of each other in protein stability index: 3.02 ± 0.12 for the first, 3.13 ± 0.06 for the second.

First: MGKSAVIFVERATPATL [SRB2]
Second: MGPPSGKTYMGWWGHMG [QCR8]
The protein stability index of the first is lower: 1.66 ± 0.2 for the first, 3.13 ± 0.2 for the second.

MGRVRTKTVKRASKALI [RPS17A] and MGSRRYDSRTTIFSPEG [PRE9] are within error of each other in protein stability index: 3.1 ± 0.069 for the first, 2.89 ± 0.19 for the second.

Going from MIISGSRDKTIKVWTIK [ASC1] to MILNYNPSQGVSNSGAQ [UBP6], the protein stability index rises from 2.49 ± 0.11 to 3.14 ± 0.064.

Going from MKAVGEYMKRHPTTIES [SEC65] to MKQYRDFLGVASTGSGK [PRP28], the protein stability index rises from 1.64 ± 0.3 to 2.88 ± 0.061.

Going from MKTKTINAQGEEIVVVA [PRP8] to MKVFVTKHLMPQDLTFN [RPB7], the protein stability index rises from 1.36 ± 0.19 to 2.54 ± 0.066.

Going from MLKQHLFKYQGHIGAYL [PUP1] to MMCDFGTGNNNKLNFIV [DIB1], the protein stability index falls from 2.25 ± 0.092 to 1.96 ± 0.15.

Compared with MNIIQQQQQQNTNNNDT [GAL11], MNRPGARVTRRKRCKGT [RPL11A] is higher in protein stability index: 2.46 ± 0.044 for the first, 3.46 ± 0.081 for the second.

Going from MPPKFDPNEVKYLYLRA [RPL12A] to MQENDKINQERLERRIN [CSI1], the protein stability index falls from 2.98 ± 0.2 to 1.26 ± 0.1.

Compared with MQFAKSKTVKVLKTLIE [RPN6], MQHNPLAGKRGPKSGST [PGD1] is higher in protein stability index: 2.51 ± 0.11 for the first, 2.85 ± 0.063 for the second.

First: MQVYLVPIERVAQLKPF [RPC37]
Second: MREITETIAEAKKKVLD [RPO21]
The protein stability index of the first is lower: 1.87 ± 0.063 for the first, 3.42 ± 0.037 for the second.

Compared with MSGRGKGGKGLGKGGAK [HHF1], MSIVFGDKFSEDFRIQF [UBP6] is lower in protein stability index: 3.61 ± 0.097 for the first, 2.2 ± 0.092 for the second.

Going from MSLQHEKVTIAPLVLLS [RPN8] to MSSDASTYRLEDVLSSF [SSN2], the protein stability index rises from 1.2 ± 0.068 to 1.9 ± 0.1.

MSVERGIRWELISRLCP [RPT1] and MTNLTYFLHLSVFNAEL [YCS4] are within error of each other in protein stability index: 1.88 ± 0.07 for the first, 1.87 ± 0.09 for the second.

Going from MTVTKVSLPEGSFKRVK [BRR2] to MTYKNKLTVCFDDILKV [MED2], the protein stability index falls from 3.19 ± 0.076 to 1.9 ± 0.071.

First: MVATVKRTIRIKTQQHI [TAF14]
Second: MVAYSPIIATYGNRAEQ [SRP68]
The protein stability index of the first is lower: 1.53 ± 0.14 for the first, 2.7 ± 0.082 for the second.

MVEWLESRSFSPIPFPP [PRP8] and MVHREFLKLANGGKFSK [RGR1] are within error of each other in protein stability index: 3.17 ± 0.13 for the first, 3.14 ± 0.12 for the second.

First: MVLVQDLLHPTAASEAR [RPS27A]
Second: MVMFMHMAKGLYYGSYR [COB]
The protein stability index of the first is higher: 3.17 ± 0.19 for the first, 1.75 ± 0.22 for the second.

Going from NAANVPVENIWADIFAK [RPP1A] to NAIFQMESEEVPLTKRY [PCI8], the protein stability index rises from 2.48 ± 0.1 to 2.85 ± 0.038.

Going from NAISLQLKYDTSVQEKE [YIL149C/MLP2] to NAISNTQDDFTTSVDVM [SRP54], the protein stability index rises from 2.75 ± 0.099 to 3.1 ± 0.064.

NAKKRVFKTHSYRGVDL [RPS15] and NALHTERLHELKKLQSD [SMC1] are within error of each other in protein stability index: 3.16 ± 0.039 for the first, 3.18 ± 0.095 for the second.

Going from NALYDTLLESNLCKIIE [RPN6] to NANEISANTNNTCTIST [SWP82], the protein stability index rises from 2.01 ± 0.065 to 2.9 ± 0.04.

First: NANQQFLPFNNSASNNG [SWI1]
Second: NANTGFSFGGTQTGQNT [YGL172W/NUP49]
The protein stability index of the first is lower: 2.96 ± 0.042 for the first, 3.23 ± 0.086 for the second.

NARMPGMPNMPGMPNMP [SRP54] and NASANSTSFSFNAPATG [YOR098C/NUP1] are within error of each other in protein stability index: 3.09 ± 0.062 for the first, 3.05 ± 0.046 for the second.

Going from NASGNKRSGVIETVDDK [ITC1] to NASQMGNTGSGGYDNAW [RPB3], the protein stability index rises from 2.27 ± 0.12 to 3.52 ± 0.2.

NATANATANATANATAE [SNF11] and NCIRILADKLENYEGKQ [YIL149C/MLP2] are within error of each other in protein stability index: 3.18 ± 0.042 for the first, 3.22 ± 0.093 for the second.

Compared with NDANITSNKEGFNSIWK [SSN2], NDDELNKLLGNVTIAQG [HTA1] is higher in protein stability index: 3.3 ± 0.051 for the first, 3.48 ± 0.064 for the second.

First: NDEKRVKEEYDIWQSRD [YIL149C/MLP2]
Second: NDELVELLANKCPLLVE [GRR1]
The protein stability index of the first is higher: 3.25 ± 0.049 for the first, 2.1 ± 0.078 for the second.

Compared with NDIDDLDMELAELDPSL [SEC65], NDIFERIATEASKLAAY [HTB1] is lower in protein stability index: 3.08 ± 0.077 for the first, 1.19 ± 0.17 for the second.

First: NDIHLRFMRFLADRDEF [ECM29]
Second: NDKLIVDNDNWVYKTKG [RPN1]
The protein stability index of the first is lower: 2.21 ± 0.16 for the first, 3.18 ± 0.28 for the second.

First: NDLRVSLNEKNALHTER [SMC1]
Second: NDNEGKHISASIDNDFS [YAR002W/NUP60]
The protein stability index of the first is lower: 2.67 ± 0.11 for the first, 3.19 ± 0.099 for the second.

Going from NDPAREKFSSFIESIVV [SNF12] to NDPNAAVNMTQNIMTLP [MED6], the protein stability index rises from 2.27 ± 0.071 to 2.71 ± 0.08.

In the case of NDVTNKNINIGKHSQEQ [SIR4], the protein stability index is reported as 2.81 ± 0.045.

Reference: the supplement of paper PMC9732359
